By Km is commonly meant the concentration of substrate that gives half-maximal velocity.

Consider 1 substance from PMC4502523.

For one series, the system named is CSc1ccc(CC(C)N)cc1. The experiment in a line: cells, lysate or membranes.
A further series concerns CC(N)Cc1ccc(Cl)cc1. The experiment in a line: cells, lysate or membranes.

human SERT (hSERT) (Homo sapiens): the Km in the series on CSc1ccc(CC(C)N)cc1 was 6.1 ± 2.3 µM; in the series with CC(N)Cc1ccc(Cl)cc1, 3.3 ± 0.9 µM.
